The labels stand for the following.
B1: AH receptor-interacting protein (Homo sapiens), O00170 (parent)
chain: MADIIARLREDGIQKRVIQEGRGELPDFQDGTKATFHYRTLHSDDEGTVLDDSRARGKPMELIIGKKFKLPVWETIVCTMREGEIAQFLCDIKHVVLYPLVAKSLRNIAVGKDPLEGQRHCCGVAQMREHSSLGHADLDALQQNPQPLIFHMEMLKVESPGTYQQDPWAMTDEEKAKAVPLIHQEGNRLYREGHVKEAAAKYYDAIACLKNLQMKEQPGSPEWIQLDQQITPLLLNYCQCKLVVEEYYEVLDHCSSILNKYDDNVKAYFKRGKAHAAVWNAQEAQADFAKVLELDPALAPVVSRELRALEARIRQKDEEDKARFRGIFSH
partner: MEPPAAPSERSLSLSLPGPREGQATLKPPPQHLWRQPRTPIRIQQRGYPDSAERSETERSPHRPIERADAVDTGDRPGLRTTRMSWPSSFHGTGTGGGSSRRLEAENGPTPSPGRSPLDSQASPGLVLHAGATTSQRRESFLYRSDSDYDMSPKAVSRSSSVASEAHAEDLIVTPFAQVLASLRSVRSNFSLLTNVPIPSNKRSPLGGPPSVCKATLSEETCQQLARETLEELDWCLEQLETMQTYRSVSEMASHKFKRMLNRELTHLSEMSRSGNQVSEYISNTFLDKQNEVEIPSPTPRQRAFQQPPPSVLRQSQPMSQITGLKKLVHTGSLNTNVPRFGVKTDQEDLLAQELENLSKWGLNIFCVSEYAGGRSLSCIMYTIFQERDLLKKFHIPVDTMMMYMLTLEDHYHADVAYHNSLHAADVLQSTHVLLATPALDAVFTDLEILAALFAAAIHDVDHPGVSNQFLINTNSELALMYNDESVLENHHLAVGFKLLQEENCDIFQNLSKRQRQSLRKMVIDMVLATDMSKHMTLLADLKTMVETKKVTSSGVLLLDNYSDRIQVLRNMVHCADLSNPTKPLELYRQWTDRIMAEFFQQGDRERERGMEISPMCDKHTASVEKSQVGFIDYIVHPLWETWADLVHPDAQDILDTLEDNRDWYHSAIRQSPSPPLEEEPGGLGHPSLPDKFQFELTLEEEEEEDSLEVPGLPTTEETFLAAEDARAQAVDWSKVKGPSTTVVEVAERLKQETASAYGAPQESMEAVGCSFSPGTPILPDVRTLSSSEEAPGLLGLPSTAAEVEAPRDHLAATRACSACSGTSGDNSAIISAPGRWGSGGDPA

We go through 9 variants from IntAct's records for PubMed 20506337.

The variants in this assay derive from B1. The note with it: with pde4a_rat Pde4a.
Consider R271W, for which the “effect of a mutation on the interaction” value is reported as “disrupting interaction strength”. R304Q: the “effect of a mutation on the interaction” value was “decreasing interaction strength”. The result for R16H reads “decreasing interaction strength”; that for K103R, “disrupting interaction strength”; that for A299V, “decreasing interaction strength”. Regarding I257V, the “effect of a mutation on the interaction” value is on record as “decreasing interaction strength”. For C238Y, the “effect of a mutation on the interaction” value is on record as “disrupting interaction strength”. With V49M, the “effect of a mutation on the interaction” value is “with no effect”.

In the case of K241E, the “effect of a mutation on the interaction” value is listed as “disrupting interaction strength”.
